Laboratory results published in US20040132045A1 (MERCK, published 2004).
Where “and” joins values, the source holds several entries; their conditions need not be identical. Identical values can stand only once. Blank lines part the entries; values can stand above or below the molecule they belong to. Bridges are numbered along the chain shown (N, C = ends). Where no end group is shown, it is not given here.

Columns and labels:
[1] = target: rhesus monkey MCH-2R (melanin-concentrating hormone type 2 receptor) (rhesus monkey) (UniProt Q8MJ88); assay: radioligand binding to HEK293T cells expressing rhesus MCH-2R in the presence of 1 uM cold [Phe13, Tyr19]-MCH
Chain of rhesus monkey MCH-2R (melanin-concentrating hormone type 2 receptor) (rhesus monkey) (Q8MJ88 whole entry): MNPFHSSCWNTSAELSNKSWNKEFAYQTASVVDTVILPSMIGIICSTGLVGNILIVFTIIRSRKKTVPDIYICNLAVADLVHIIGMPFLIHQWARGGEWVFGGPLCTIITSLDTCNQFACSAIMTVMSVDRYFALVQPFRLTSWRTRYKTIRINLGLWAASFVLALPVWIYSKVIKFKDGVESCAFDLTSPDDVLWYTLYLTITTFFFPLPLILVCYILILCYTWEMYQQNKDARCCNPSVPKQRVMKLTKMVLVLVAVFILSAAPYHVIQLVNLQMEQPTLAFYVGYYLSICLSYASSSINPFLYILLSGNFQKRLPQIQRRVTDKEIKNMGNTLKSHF

[2] = target: rhesus monkey MCH-2R (melanin-concentrating hormone type 2 receptor) (rhesus monkey) (UniProt Q8MJ88); assay: radioligand binding to HEK293T cells expressing rhesus MCH-2R, cell-bound radioactivity
ferret MCH-2R [3] = target: T1, ferret MCH-2R (ferret, UniProt Q969V1 1-340 (human entry)); assay: radioligand competition binding on membranes of COS-7 cells transfected with ferret MCH-2R; radioligand not named
T1 construct: Function was measured in HEK-293 aequorin cells
T1 chain: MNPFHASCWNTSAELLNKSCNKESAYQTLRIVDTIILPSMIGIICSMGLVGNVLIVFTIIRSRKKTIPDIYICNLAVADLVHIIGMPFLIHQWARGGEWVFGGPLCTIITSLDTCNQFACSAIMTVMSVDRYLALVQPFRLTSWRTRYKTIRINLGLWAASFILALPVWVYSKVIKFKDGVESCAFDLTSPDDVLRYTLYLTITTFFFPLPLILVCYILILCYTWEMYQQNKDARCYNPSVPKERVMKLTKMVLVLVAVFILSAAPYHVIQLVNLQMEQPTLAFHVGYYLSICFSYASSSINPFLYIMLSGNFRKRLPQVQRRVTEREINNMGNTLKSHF
Protocol: (§1) (Strader, et al., 1987. Proc. Natl. Acad. Sci. USA 84, 4384-4388). Cells were harvested after 60-72 hours. Membranes were prepared from transient and stable transfectants by hypotonic lysis, frozen in liquid nitrogen, and stored at −80° C. (MacNeil, et al., 1994. Biochem. Biophys. Res. Commun. 198, 328-334.)
(§2) A binding assay was set up in 96 well plates. Total volume per binding assay point was 200 μL. […] Dose response curves were from 10 μM in 5 fold or 3-fold dilution series for 11 points. The mixture was shaken for 5 minutes on a platform shaker, and incubated at room temperature for 1 hour. Filter plates were presoaked in 1% PEI. The binding reaction was harvested onto filters using Packard Filtermate harvester (Meriden, Conn.). The filters were then washed in 50 mM Tris pH 7.4, 10 mM MgCl₂, 2 mM EDTA, 0.04% Tween 20, 6-8 times per plate. The plates were dried for 20 minutes at 55° C. or overnight at room temperature. 30 μL microscintillant was added per well and counted for 1.5-3 minutes in inverted format on Packard TopCount.

ferret MCH-2R [4] = target: T1, ferret MCH-2R; assay: cell-based or functional assay
human MCH-2R [5] = target: T2, human MCH-2R (human, UniProt Q969V1 1-340); assay: cell-based or functional assay
T2 sequence (Q969V1 whole entry): as the sequence (Q8MJ88 whole entry) above, with S6A, S16L, I84V, S143R, V163I, I170V, A258V, V324A, D326E, K330N counted along it

[6] = target: T3, rhesus monkey MCH-2R (melanin-concentrating hormone type 2 receptor) (rhesus monkey, UniProt Q8MJ88 1-340); assay: cell-based or functional assay
T3 sequence (Q8MJ88 whole entry): as the sequence (Q8MJ88 whole entry) above

human MCH-2R [7] = target: T2, human MCH-2R; assay: radioligand competition binding on membranes of COS-7 cells transfected with human MCH-2R; radioligand not named
Protocol: as §1, §2

[8] = target: T3, rhesus monkey MCH-2R …; assay: displacement of 100 pM [125I]-[Phe13, Tyr19]-MCH from HEK293T cells expressing rhesus MCH-2R, filtration
Protocol: The remaining radio activity on the filter was quantitated using a TopCount HTS (Packard instrument) with a Microscint 0 scintillation cocktail (Packard instrument). […] Data were analyzed using GraphPad Prism Version 3.0.

Nonspecific binding (cpm) [1]: 598 cpm and 567 cpm and 717 cpm | Total binding (cpm) [2]: 18000 cpm (2×) and 18700 cpm
Molecule: [^125I]-[Phe^13, Tyr^19]-MCH (from UniProt P20382 147-165) (peptide)

IC50 (ferret MCH-2R [3]): 55 nM | Function (EC50, nM), aequorin bioluminescence assay (ferret MCH-2R [4]): 69 nM | Function (EC50, nM), aequorin bioluminescence assay (human MCH-2R [5]): 43 nM | increase in intracellular calcium levels (fura-2), EC50 [6]: 24 nM | IC50 (human MCH-2R [7]): 10 nM
B1: Melanin-concentrating hormone (MCH) (peptide, UniProt P20382 147-165, looked up)
peptide: DFDMLRCMLGRVYRPCWQV
modifications: disulfide 7-16 (inferred)
notes: mature; also called cold MCH; MCH unlabeled peptide

increase in intracellular calcium levels (fura-2), EC50 [6]: 49 nM | IC50 [8]: 3.8 nM
Molecule: DFDMLRCMLGRVFRPCWQY (ends and bridges not checked; cysteine pairing not given here) [[Phe^13, Tyr^19]-MCH]
